{"source": "patent US20220380473A1", "about": "“ANTI-GAL3 ANTIBODIES AND USES THEREOF” (TrueBinding, Inc., priority 2019, published 2022)", "key": {"[1]": {"target": "T1, association of GAL3 and TIM3 (Homo sapiens, UniProt P17931)", "T1 construct": "full-length human Galectin-3 protein (Acro Biosystems, GA3-H5129); linker-spaced 6-histidine tag; purchased Acro Biosystems GA3-H5129 (Gal3); TM3-H5229 (TIM-3)", "T1 sequence (P17931 2-250 limits assumed)": "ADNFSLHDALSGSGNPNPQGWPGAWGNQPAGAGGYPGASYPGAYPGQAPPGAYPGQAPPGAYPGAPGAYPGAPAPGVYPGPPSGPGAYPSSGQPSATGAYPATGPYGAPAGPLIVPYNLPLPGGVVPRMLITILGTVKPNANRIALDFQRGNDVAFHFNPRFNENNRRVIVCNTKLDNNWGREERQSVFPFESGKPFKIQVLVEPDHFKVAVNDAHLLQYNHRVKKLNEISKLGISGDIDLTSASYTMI", "assay": "GAL3-TIM3 blocking ELISA (Examples 24, 27)", "type": "binding", "conditions": "3 ug/mL antibody", "protocol": "Positively scoring wells were evaluated for the ability to block association of GAL3 and TIM3. To identify GAL3-targeted antibodies with the ability to block the interaction of GAL3 and TIM3, purified GAL3 and TIM3 proteins were incubated in the presence of GAL3-immunization hybridoma supernatants described above, or without antibody, and protein interaction was evaluated by ELISA. Human Galectin-3 protein (Acro Biosystems, GA3-H5129) was diluted in PBS (Corning, 21-030-CM) to a concentration of 3 μg/ml and added to the wells of a 96-well ELISA plate (Thermo Fisher, 44-2404-21). After incubating the plate at 4° C. overnight, the plate was washed three times with PBST (PBS with 0.05% Tween 20 [VWR, 0777]). The plate was then blocked for an hour with 2% BSA (EMD Millipore, 126609) in PBST at room temperature with gentle rocking. Thereafter, the 2% BSA in PBST was discarded and antibody or inhibitor (3-fold dilutions beginning at 20 μg/ml, 60 μg/ml, or 180 μM) in 2% BSA in PBST was added to the wells. Afterwards, 2 μg/ml of human TIM3 (Aero Biosystems, TM3-H5229) in 2% BSA in PBST was added to the antibody or inhibitor in the wells in a 1:1 ratio. The plate was incubated for an hour at room temperature with gentle rocking. Thereafter, the plate was washed three times with PBST, and 0.3 μg/ml of human TIM3 Biotinylated Antibody (R&D Systems, BAF2365) in 2% BSA in PBST was added to the wells. The plate was incubated for an hour with gentle rocking and then washed three times with PBST. Avidin-HRP (1:2000) was then added to the wells. The plate was incubated at room temperature for an hour with gentle rocking and then washed three times with PBST. TMB substrate (Thermo Scientific, 34029) was then added to each well. The reaction was stopped with 1M HCl (JT Baker, 5620-02) and read using a plate reader (Molecular Devices) at absorbance of 450 nm."}, "[2]": {"tested_on": "mouse macrophage cell line RAW264.7", "assay": "IHC and flow cytometry staining of RAW mouse macrophages", "type": "cell-based", "protocol": "The expression of Gal3 on mouse macrophages was detected by both IHC and Flow cytometry analysis. In the details of IHC, 100,000 cells per well were seeded overnight. On the second day, cells were washed once with PBS, fixed with 3% formaldehyde at room temperature for 10 min, then washed twice with PBS and blocked in PBS containing 10% FBS and […] for 1 h at room temperature. After blocking, cells were incubated with 10 μg/mL of 1st antibody mIgG-biotin (BioLegend) or IMT001-biotin at 4° C. overnight, washed three times with PBST, stained with avidin-HRP (1:1000) at room temperature for 1 h and then washed three times again with PBST. The staining was developed using peroxidase substrate and counterstained with Hematoxylin QS (Vector Laboratories).\nIn the experiment of flow cytometry, 100,000 RAW cells were blocked with 10% FBS plus 200 μg/mL hIgG on ice for 20 min, and then incubated with 100 μl 10% FBS HBSS solution that contains control mIgG (BD Biosciences) or IMT001 at 10 μg/ml on ice for 20 minutes. Then cells were washed and incubated with APC conjugated anti-mFc antibodies (Jackson ImmunoResearch) at 1:100 on ice for 20 min. After spinning, live/dead cells were stained with Violet dead cell stain kit (Life Technologies). Stained cells were subjected to flow analysis."}, "[3]": {"tested_on": "MC38 murine colon adenocarcinoma cells", "assay": "Primary mouse MC38 colon tumor model", "type": "in vivo", "protocol": "On the day of tumor implantation, MC38 murine colon adenocarcinoma cells were collected, washed and resuspended in PBS. Mice were anesthetized by inhalation anesthetic (3 to 5% Isoflurane in medical grade air). 5×10^5 cells in 0.1 mL PBS were subcutaneously injected into the right flank of mice by using a syringe with a 25-ga needle. On day 7, the tumor volumes were measured and mice were randomly assigned into two groups (n=8). […] The tumor volumes and body weights were monitored twice per week. The animals were humanely sacrificed when tumor volume reached 3000 mm^3. Results were expressed as mean±SEM."}, "4T1 cells": {"tested_on": "4T1 cells", "assay": "4T1 orthotopic tumor induced lung metastasis model", "type": "in vivo, mouse", "conditions": "10 mg/Kg i.p., day 30, vs isotype control", "protocol": "On the day of tumor implantation, 4T1 cells were collected, washed and resuspended in PBS. Mice were anesthetized by inhalation anesthetic (3 to 5% Isoflurane in medical grade air). 2×10^5 cells in 0.1 mL PBS were subcutaneously injected into the mammary gland by using a syringe with a 25-ga needle. Mice were randomly assigned into two groups (n=10). […] The tumor volumes and body weights were monitored twice per week. On day 30, the mice were humanely sacrificed and lung tissues were inflated with 30% sucrose, removed and fixed in Bouin's solution (Sigma-Aldrich). […] Results were expressed as mean±SEM."}}}
{"molecule": "IMT001: anti-Gal3 monoclonal antibody (Immutics); printed as mIMT001 (IMT001), murine (antibody, V domains shown) VH: QIQLVQSGPELKKPGETVKISCKASGYTFTNYGMNWVKQAPGKGLKWMGWINTNTGEPTYVEEFKGRFAFSLETSASTAYLQINNLKNEDTATYFCAPYDNFFAYWGQGTLVTVSA VL: DIVITQDELSNPVTSGESVSISCRSSKSLLYKDGKTYLNWFLQRPGQSPQLLIYLMSTHASGVSDRFSGSGSGTDFTLEISRVKAEDVGVYYCQQLVDYPLTFGAGTKLELK", "values": [{"measurement": "GAL3-TIM3 Blocking @ 3 ug/mL", "setting": "[1]", "result": 80, "unit": "%"}, {"measurement": "IHC detection of Gal3 on macrophages", "setting": "[2]; 10 μg/mL, vs mIgG control", "result": "clearly detected Gal3 expression on macrophages"}, {"measurement": "MFI of stained RAW cells vs isotype control", "setting": "[2]; 10 μg/ml, flow cytometry", "result": "more than 10 folds"}, {"measurement": "reduction of tumor burden", "setting": "[3]; 10 mg/Kg i.p., day 24, vs isotype control", "result": "about 33%"}, {"measurement": "effect on tumor size", "setting": "[3]; vs isotype control", "result": "much reduced tumor size"}, {"measurement": "lung metastatic number", "setting": "4T1 cells", "result": "significant reduction of lung metastatic number"}, {"measurement": "reduction of tumor number (black metastatic colonies)", "setting": "B16F10 cells; 10 mg/Kg i.p., day 21, vs isotype control", "result": "about 46%"}, {"measurement": "anti-tumor effect, tumor number", "setting": "B16F10 cells; 10 mg/Kg i.p., vs isotype control", "result": "significant reduction of tumor number"}, {"measurement": "tumor burden as indicated by lung weight", "setting": "B16F10 cells; vs isotype control", "result": "much less tumor burden"}]}
